The results in this text go back to article PMC7179120.

What all share (test): other fluorescence titration; microplate-based binding assay (HI-FI) with Alexa-488-labelled Sod1 and Ccs; 20 mM Tris pH 7.5, 150 mM NaCl, 1 mM TCEP; plates imaged on a Typhoon FLA 9500; quadruplicate; apparent dissociation constants
The target in experiment [1] is human Sod1 A4V/C146S, metal-free, disulfide reduced, labelled with Alexa-488 at C57 (human).
For experiment [2], the target named is human Sod1 G85R/C146S, metal-free, disulfide reduced, labelled with Alexa-488 at C57 (human).
The target in experiment [3] is human Sod1 G93A/C146S, metal-free, disulfide reduced, labelled with Alexa-488 at C57 (human).
In experiment [4] the target is human Sod1 H80R/C146S, metal-free, disulfide reduced, labelled with Alexa-488 at C57 (human).

As to “human copper chaperone for Sod1 (Ccs) (natural protein)”, the Kd in experiment [1] worked out at 42.1 nM; in experiment [2], 35.5 nM; in experiment [3], 33.4 nM; in experiment [4], 67.6 nM.
